Measured values taken from the supplement of paper PMC10567573.

B1: CLCN6 (parent)
chain: MAGCRGSLCCCCRWCCCCGERETR
B2: RAB40A (parent)
chain: NWLGRPSKVLSLQDLCCRTIVSCT

Variants of: B1
Test: protein stability index of a GFP-peptide fusion (GPS, HEK-293T) (PSI 1-6); higher = more stable
Conditions: c terminus: a fixed tail appended
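Note: lentivirally expressed fusions sorted by FACS into six bins by GFP to DsRed ratio, PSI derived from sequencing read proportions per bin multiplied by bin number.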

In order of rising protein stability index:
1. MAGCRGSLCCCCRWCCCCGTRETR  1.01
2. MAGCRGSLCCCCRWCCCCGEMETR  1.08
3. MAGCRGSLCCCCRWCCQCGERETR  1.09
4. MAGCRGSLCCCCKWCCCCGERETR  1.1
5. MAGCRGSLCCCCRWCCCCGWRETR  1.11
6. MAVCRGSLCCCCRWCCCCGERETR  1.15
7. MAGCRGSDCCCCRWCCCCGERETR  1.17
8. MAGCRGSLCCKCRWCCCCGERETR  1.17
9. MAPCRGSLCCCCRWCCCCGERETR  1.27
10. MAGCRGSLCMCCRWCCCCGERETR  1.28
11. MAGCRGSLCCCCRWCCCCQERETR  1.29
12. MAQCRGSLCCCCRWCCCCGERETR  1.31
13. MAGCRLSLCCCCRWCCCCGERETR  1.32
14. MAGCRGSLCCCCRWYCCCGERETR  1.36
15. MPGCRGSLCCCCRWCCCCGERETR  1.37
16. MAGCRVSLCCCCRWCCCCGERETR  1.37
17. MAGCRGSLCCCCRWCCCCGEQETR  1.39
18. MAGCRGSLCCCCRWCCVCGERETR  1.41
19. MAGCRMSLCCCCRWCCCCGERETR  1.41
20. MAGCRGSNCCCCRWCCCCGERETR  1.42
21. MAGCRGSLCACCRWCCCCGERETR  1.42
22. MAGCRGSLCCCCRWCCCCNERETR  1.44
23. MAGCTGSLCCCCRWCCCCGERETR  1.44
24. MAGCRGSLECCCRWCCCCGERETR  1.45
25. MAGCRGSLCCCCRWCCCCIERETR  1.45
26. MAGCRGSLCCCCRWCHCCGERETR  1.47
27. MAGCRGSLCCCCRWCCCCGERKTR  1.49
28. MAGCRGSLCCCCRWCCCCAERETR  1.49
29. MAGCRGSLCCCCRWCCCCGEIETR  1.5
30. MAGCRGKLCCCCRWCCCCGERETR  1.5
31. MAGCRGALCCCCRWCCCCGERETR  1.5
32. MAGCRGSLCCCCRWPCCCGERETR  1.5
33. MAGCRGSLCCCCRWCCNCGERETR  1.52
34. MAGCRGSLCCCHRWCCCCGERETR  1.52
35. MAGCRGSLCCCCRWCCCCGEWETR  1.52
36. MAGCRGSLCQCCRWCCCCGERETR  1.54
37. MAGCRGSLCCCCRWCLCCGERETR  1.55
38. MAGCRGSLCCCCRWCCCCGQRETR  1.55
39. MAGCRGSLCCCCRWCCCCGIRETR  1.55
40. MAGCRGSLCCCCRWCCCCGHRETR  1.56
41. SAGCRGSLCCCCRWCCCCGERETR  1.56
42. MAGIRGSLCCCCRWCCCCGERETR  1.61
43. MAGCRGSLCCCCRWCCICGERETR  1.62
44. MAGCRGSLLCCCRWCCCCGERETR  1.64
45. MAGCRGSLCCCCRWCKCCGERETR  1.65
46. QAGCRGSLCCCCRWCCCCGERETR  1.65
47. MAGCRGSLCCCCRWCCCCGERRTR  1.69
48. MAGCRGSLYCCCRWCCCCGERETR  1.69
49. MAGCRGSLCHCCRWCCCCGERETR  1.69
50. MAGCRGSLCWCCRWCCCCGERETR  1.69
51. MAGCRGSLCNCCRWCCCCGERETR  1.7
52. MAGCRGSLCCCCRWDCCCGERETR  1.71
53. MAGCRGSLCCCCRWCCCCGERHTR  1.73
54. MAGCRGSLICCCRWCCCCGERETR  1.76
55. MAGCRGSLCCCCRWCCCCGELETR  1.76
56. MAGCRGSLCCCCRWNCCCGERETR  1.76
57. MAGCRGSLFCCCRWCCCCGERETR  1.77
58. MAGCRGSLCCSCRWCCCCGERETR  1.77
59. DAGCRGSLCCCCRWCCCCGERETR  1.78
60. MAGCRGSLCCCCRWCCCCGEREYR  1.79
61. MAGCRGSLCICCRWCCCCGERETR  1.79
62. MAGCRGSLCCCCRWCCCCGEREQR  1.8
63. MAGCRGSLCCCCRWKCCCGERETR  1.82
64. MAGCRGSLCCCCRWCCCCCERETR  1.83
65. MAGCRGSLCCCCRWCCCCGEREPR  1.83
66. MAGCRGSLCCCCRWCCCYGERETR  1.84
67. MAGCRGSLCCMCRWCCCCGERETR  1.84
68. MAGCRGSLCCCCRWCCCTGERETR  1.86
69. MAGCRHSLCCCCRWCCCCGERETR  1.86
70. GAGCRGSLCCCCRWCCCCGERETR  1.86
71. MAGCRGSLCCCCRWCCCCGERETI  1.87
72. MAGCRGSLCCCCRWCCCCGENETR  1.87
73. MAGCRGSLCCCCRWICCCGERETR  1.87
74. MAGCRGSLCYCCRWCCCCGERETR  1.88
75. MAGCRGSLCCCCRWCCCCGERCTR  1.89
76. MAGCRGSLCCCCRWCCKCGERETR  1.89
77. MAGCRGSLCCCCRACCCCGERETR  1.89
78. MAGCRGSLCCCCRWCCCCGYRETR  1.89
79. MAGCRGSLCCQCRWCCCCGERETR  1.9
80. MAGCRGFLCCCCRWCCCCGERETR  1.91
81. AAGCRGSLCCCCRWCCCCGERETR  1.91
82. MAGCIGSLCCCCRWCCCCGERETR  1.92
83. MAGCRFSLCCCCRWCCCCGERETR  1.92
84. MAGCRGSLCCCCSWCCCCGERETR  1.94
85. MAGCRGSLCCCRRWCCCCGERETR  1.95
86. MAGCRGSLCCCCTWCCCCGERETR  1.95
87. MAGCRGSLCCCCRWCCDCGERETR  1.96
88. MAGCRGSLCCCSRWCCCCGERETR  1.96
89. MAGCRGSLCCCCRWACCCGERETR  1.97
90. MAGCAGSLCCCCRWCCCCGERETR  1.98
91. MAGCWGSLCCCCRWCCCCGERETR  1.98
92. CAGCRGSLCCCCRWCCCCGERETR  1.98
93. MAMCRGSLCCCCRWCCCCGERETR  1.99
94. MDGCRGSLCCCCRWCCCCGERETR  2
95. MAGCRGSLCCCCRWSCCCGERETR  2
96. MAGCRGSLCCCCAWCCCCGERETR  2.01
97. MAGCRGSLCCCCRWCCCCTERETR  2.02
98. MAGCRGSLCCCCRWCVCCGERETR  2.02
99. MAGCRGSLCCCCRWCCCHGERETR  2.06
100. MAGCRGSLCCCCRNCCCCGERETR  2.06
101. MAGCRGSLCCCCRHCCCCGERETR  2.06
102. MAGCRGSLCCCCHWCCCCGERETR  2.06
103. MAGCRGSLCCCCRWCCCCGLRETR  2.06
104. MAGCRGSGCCCCRWCCCCGERETR  2.1
105. MAFCRGSLCCCCRWCCCCGERETR  2.11
106. MAGYRGSLCCCCRWCCCCGERETR  2.12
107. MAGCRGSLCCCCMWCCCCGERETR  2.13
108. HAGCRGSLCCCCRWCCCCGERETR  2.14
109. MAGCRGSLCCCCRWCCCCGERITR  2.15
110. MAGCRGSLCCCCRWCCCCGEREDR  2.15
111. MAGCRGSLCCCCRWCCCCPERETR  2.17
112. MAGCRGSLCCCCRWCCCCGESETR  2.18
113. MAGCRGSLCCCCRWCCCCDERETR  2.22
114. MAGCRGSLCCCCRRCCCCGERETR  2.22
115. MAGCRGSLGCCCRWCCCCGERETR  2.23
116. MAGCRGSLCCCCRGCCCCGERETR  2.23
117. MAGCRGSLCCCYRWCCCCGERETR  2.23
118. MAGCRGSLCCDCRWCCCCGERETR  2.23
119. MAGCRGSLCCCCRWCICCGERETR  2.23
120. MAGDRGSLCCCCRWCCCCGERETR  2.24
121. MAGCRGSLCCTCRWCCCCGERETR  2.24
122. MAGCRGSLCCCCGWCCCCGERETR  2.27
123. MAGCRGSLCCCCRWCCFCGERETR  2.29
124. MAGCRGSLCCCCRWCCCCGERLTR  2.3
125. MAGRRGSLCCCCRWCCCCGERETR  2.33
126. MAGCCGSLCCCCRWCCCCGERETR  2.33
127. MAGCRGSLCCCCRWCCCCMERETR  2.34
128. MAGCRGSLCCCDRWCCCCGERETR  2.35
129. MAGKRGSLCCCCRWCCCCGERETR  2.35
130. MAGCRGSLCCCCRWCCCCGNRETR  2.36
131. MAGCRGSLCCCCRWCCCCGERESR  2.36
132. MAGCRGSLCCCCNWCCCCGERETR  2.4
133. MAGCRGSLCCCCEWCCCCGERETR  2.4
134. MAGCRGSLCCACRWCCCCGERETR  2.42
135. MAGCRGSLCCCCRWCCCCGERETY  2.44
136. MAGCRGCLCCCCRWCCCCGERETR  2.52
137. MAGCRGSLCCCCRWCCCCFERETR  2.53
138. MAGCRGSLCCCCRWCCCCGERETQ  2.54
139. MAGCRWSLCCCCRWCCCCGERETR  2.54
140. MAGCRGSLCCCCRWCCLCGERETR  2.55
141. MAGCRGILCCCCRWCCCCGERETR  2.55
142. MAGCRGSLCCCCRWCCCCGERETS  2.57
143. MAGCRGSLCCCCRWCCCQGERETR  2.58
144. MAGCRGSLMCCCRWCCCCGERETR  2.65
145. MAGCRGSLCCCCRWCDCCGERETR  2.66
146. MAGCRGSLCCFCRWCCCCGERETR  2.72
147. MAGCRGSLCCCCRWCCCCGERETL  2.73
148. MEGCRGSLCCCCRWCCCCGERETR  2.77
149. MAGCRGSLCCCCRWCCCCGERETK  2.78
150. MAGCRGSLCCCCRWCWCCGERETR  2.86
151. MAGCRGSLCCCIRWCCCCGERETR  2.88
152. MAGCRGSLCCCCRWCCCCGERETC  3.05
153. MAGCRGSLACCCRWCCCCGERETR  3.15
154. MAGCKGSLCCCCRWCCCCGERETR  3.21

Variants of: B2
Test: as above
Conditions: c terminus: a fixed tail appended

In order of falling protein stability index:
1. NDLGRPSKVLSLQDLCCRTIVSCT  3.7
2. NGLGRPSKVLSLQDLCCRTIVSCT  3.23
3. NNLGRPSKVLSLQDLCCRTIVSCT  3.23
4. NELGRPSKVLSLQDLCCRTIVSCT  3.18
5. NQLGRPSKVLSLQDLCCRTIVSCT  3.14
6. NKLGRPSKVLSLQDLCCRTIVSCT  3.11
7. NALGRPSKVLSLQDLCCRTIVSCT  3.05
8. NHLGRPSKVLSLQDLCCRTIVSCT  3.05
9. GWLGRPSKVLSLQDLCCRTIVSCT  3.03
10. NILGRPSKVLSLQDLCCRTIVSCT  3.01
11. NRLGRPSKVLSLQDLCCRTIVSCT  3
12. NPLGRPSKVLSLQDLCCRTIVSCT  2.81
13. NCLGRPSKVLSLQDLCCRTIVSCT  2.71
14. NLLGRPSKVLSLQDLCCRTIVSCT  2.68
15. NFLGRPSKVLSLQDLCCRTIVSCT  2.64
16. NMLGRPSKVLSLQDLCCRTIVSCT  2.62
17. EWLGRPSKVLSLQDLCCRTIVSCT  2.6
18. SWLGRPSKVLSLQDLCCRTIVSCT  2.36
19. PWLGRPSKVLSLQDLCCRTIVSCT  2.35
20. QWLGRPSKVLSLQDLCCRTIVSCT  2.29
21. WWLGRPSKVLSLQDLCCRTIVSCT  2.22
22. RWLGRPSKVLSLQDLCCRTIVSCT  2.21
23. HWLGRPSKVLSLQDLCCRTIVSCT  2.2
24. FWLGRPSKVLSLQDLCCRTIVSCT  2.16
25. TWLGRPSKVLSLQDLCCRTIVSCT  2.16
26. VWLGRPSKVLSLQDLCCRTIVSCT  2.15
27. DWLGRPSKVLSLQDLCCRTIVSCT  2.12
28. AWLGRPSKVLSLQDLCCRTIVSCT  2.04
29. CWLGRPSKVLSLQDLCCRTIVSCT  2.02
30. KWLGRPSKVLSLQDLCCRTIVSCT  1.97
31. IWLGRPSKVLSLQDLCCRTIVSCT  1.84
32. YWLGRPSKVLSLQDLCCRTIVSCT  1.83
33. MWLGRPSKVLSLQDLCCRTIVSCT  1.75
34. LWLGRPSKVLSLQDLCCRTIVSCT  1.62
